We go through twelve molecules from patent US20250101120A1 (BEIJING SOLOBIO GENETECHNOLOGY, published 2025).

In assay [1] the target is T1, hFc-hFasL (fusion protein of human Fc fragment and human FasL extracellular region) (human, UniProt P48023 134-281).
T1 sequence: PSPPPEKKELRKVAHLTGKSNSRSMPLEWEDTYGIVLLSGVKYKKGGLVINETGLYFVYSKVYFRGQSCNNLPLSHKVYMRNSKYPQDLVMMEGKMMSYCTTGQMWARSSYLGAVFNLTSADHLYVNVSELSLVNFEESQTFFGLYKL
Nature of the assay: cell-based or functional assay.

The target of assay [2] is T1, hFc-hFasL (fusion protein of human Fc …). Kind of assay: ELISA, hFc-hFasL coated, antibody titrated, anti-human kappa-HRP (protocol of Example 3.2).
Assay [3] shares this target. Kind of assay: cell-based or functional assay. This is another data set of the same source.
For assay [4] the target is unchanged. Kind of assay: cell-based or functional assay. The source holds these as a separate data set.
Assay [5] shares this target. Kind of assay: cell-based or functional assay. The source holds these as a separate data set.
The target is the same in assay [6]. Kind of assay: ELISA, hFc-hFasL coated, antibody titrated, anti-human kappa-HRP. (In an ELISA, binding on a coated surface is turned into a signal by an enzyme label.)

B1: humFL-M88-4 (antibody, human IgG4, V domains shown)
VH: QVQLVQSGAEVKKPGASVKVSCKGSGYTFTDYTIHWVRQAPGQGLEWMGVISTYQGDASYNQKFKGRVTMTVDKSTSTAYMELSSLRSEDTAVYYCARFPDWDYAMDYWGQGTLVTVSS
VL: EIVMTQSPATLSVSPGERATLSCKASQSVDYDGDSYMNWYQQKPGQPPRLLIYAASNLESGIPARFSGSGSGTEFTLTISSLQSEDFAVYYCQHSRELPYTFGQGTKLEIK
notes: Humanized FL-M88
In general, EC50 refers to the concentration needed to bring the measured effect to its halfway point. The low end stands for an effect from little substance, the high end for a need for much substance. In the case of B1, in assay [1], the “HepG2 IC50(nM), FasL antigen-induced cell apoptosis” value (shortened to “HepG2 IC50(nM)”) was 0.0333 nM and the “Jurkat IC50(nM), FasL antigen-induced cell apoptosis” value (from here on “Jurkat IC50(nM)”) is 0.0294 nM. In assay [2], the EC50 came out at 0.288 nM.

B2: humFL-M88-5 (antibody, human IgG4, V domains shown)
VH: QVQLVQSGAEVKKPGASVKVSCKGSGYTFTDYTIHWVRQAPGQGLEWMGVISTYQGDASYNQKFKGRVTMTVDKSTSTVYMELSSLRSEDTAVYYCARFPDWDYAMDYWGQGTLVTVSS
VL: EIVMTQSPATLSVSPGERATLSCKASQSVDYDGDSYMNWYQQKPGQPPRLLIYAASNLESGIPARFSGSGSGTEFTLTISSLQSEDFAVYYCQHSRELPYTFGQGTKLEIK
notes: Humanized FL-M88
Consider B2, for which, in assay [1], the “HepG2 IC50(nM)” value came to 0.0222 nM and the “Jurkat IC50(nM)” value turned out to be 0.0186 nM. The molecule also came in with an EC50 in assay [2] of 0.23 nM.

B3: humFL-M88-6 (antibody, human IgG4, V domains shown)
VH: QVQLVQSGAEVKKPGASVKVSCKASGYTFTDYTIHWVRQAPGQGLEWMGVISTYQGDASYNQKFKGRVTMTVDTSTSTVYMELSSLRSEDTAVYYCARFPDWDYAMDYWGQGTLVTVSS
VL: EIVMTQSPATLSVSPGERATLSCKASQSVDYDGDSYMNWYQQKPGQPPRLLIYAASNLESGIPARFSGSGSGTEFTLTISSLQSEDFAVYYCQHSRELPYTFGQGTKLEIK
notes: Humanized FL-M88
For B3, in assay [1], the “HepG2 IC50(nM)” value amounted to 0.0204 nM. Further, the EC50 in assay [2] was 0.235 nM.

B4: humFL-M88-12 (antibody, human IgG4, V domains shown)
VH: QVQLVQSGAEVKKPGASVKVSCKASGYTFTDYTIHWVRQAPGQGLEWMGVISTYQGDASYNQKFKGRVTMTVDTSTSTVYMELSSLRSEDTAVYYCARFPDWDYAMDYWGQGTLVTVSS
VL: EIVMTQSPATLSVSPGERATLSCKASQSVDYDGDSYMNWYQQKPGQAPRLLIYAASNLESGIPARFSGSGSGTEFTLTISSLQSEDFAVYYCQHSRELPYTFGQGTKLEIK
notes: Humanized FL-M88
As to B4, in assay [1], the “Jurkat IC50(nM)” value was determined as 0.0234 nM. Moreover, in assay [2], the EC50 was found to be 0.276 nM.

B5: humFL-M88-18 (antibody, human IgG4, V domains shown)
VH: QVQLVQSGAEVKKPGASVKVSCKASGYTFTDYTIHWVRQAPGQGLEWMGVISTYQGDASYNQKFKGRVTMTVDTSTSTVYMELSSLRSEDTAVYYCARFPDWDYAMDYWGQGTLVTVSS
VL: EIVMTQSPATLSVSPGERATLSCKASQSVDYDGDSYMNWYQQKPGQPPRLLIYAASNLESGIPARFSGSGSGTEFTLTISSLQSEDFAVYYCQQSRELPYTFGQGTKLEIK
notes: Humanized FL-M88
For B5, in assay [1], the “Jurkat IC50(nM)” value is 0.0325 nM. For the same molecule, the EC50 in assay [2] came out at 0.272 nM.

B6: humFL-M88-7 (antibody, human IgG4, V domains shown)
VH: QVQLVQSGAEVKKPGASVKVSCKGSGYTFTDYTIHWVRQAPGQGLEWIGVISTYQGDASYNQKFKGRATMTVDKSTSTAYMELSSLRSEDTAVYYCARFPDWDYAMDYWGQGTLVTVSS
VL: EIVMTQSPATLSVSPGERATLSCKASQSVDYDGDSYMNWYQQKPGQAPRLLIYAASNLESGIPARFSGSGSGTEFTLTISSLQSEDFAVYYCQHSRELPYTFGQGTKLEIK
notes: Humanized FL-M88
Turning to B6, the “HepG2 IC50(nM)” value in assay [1] is 0.0274 nM. The EC50 in assay [2] was found to be 0.34 nM.

B7: humFL-M88-9 (antibody, human IgG4, V domains shown)
VH: QVQLVQSGAEVKKPGASVKVSCKGSGYTFTDYTIHWVRQAPGQGLEWMGVISTYQGDASYNQKFKGRATMTVDKSTSTAYMELSSLRSEDTAVYYCARFPDWDYAMDYWGQGTLVTVSS
VL: EIVMTQSPATLSVSPGERATLSCKASQSVDYDGDSYMNWYQQKPGQAPRLLIYAASNLESGIPARFSGSGSGTEFTLTISSLQSEDFAVYYCQHSRELPYTFGQGTKLEIK
notes: Humanized FL-M88
Turning to B7, in assay [1], the “HepG2 IC50(nM)” value was 0.0225 nM and the “Jurkat IC50(nM)” value was found to be 0.022 nM. This molecule also yielded an EC50 in assay [2] of 0.284 nM.

B8: FL-M78 (antibody, V domains shown)
VH: DVQLQESGGGLVQPGGSRKLSCAASGFTFSSYDMSWVRQTPEKRLEWVAFISSGGGSTYYPDTVKGRFTISRDNAKNTLYLQMSSLKSEDSAMYYCGRHYDNYLYAMDYWGQGTSVTVSS
VL: DIVMTQSPASQSASLGESVTITCLASQTIGTWLAWYQQKPGKSPQLLIYAATSLADGVPSRFSGSGSGTKFSFKISSLQAEDFVSYYCQQLYSTPFTFGGGTKLEIK
notes: Chimeric full-length antibody, tested as human IgG4 / human kappa
Regarding B8, the “IC50(nM), FasL antigen-induced apoptosis of HepG2 cells (CellTiter-Glo ATP)” value (from here on “IC50(nM) … of HepG2 cells (CellTiter-Glo ATP)”) in assay [3] turned out to be 0.016 nM. The “IC50(nM), FasL antigen-induced apoptosis of Jurkat cells (CellTiter-Glo ATP)” value (“IC50(nM) … of Jurkat cells (CellTiter-Glo ATP)” below) in assay [4] was 0.023 nM. Besides, in assay [5], the “EC50(nM), FasL antigen-induced NF-κB signaling pathway activation (SEAP, HepG2-Dual)” value (“EC50(nM) … (SEAP, HepG2-Dual)” below) amounted to 3.01 nM. The molecule also yielded an EC50 in assay [6] of 0.811 nM.

B9: FL-M05 (antibody, V domains shown)
VH: EVQLQQSGAELVRPGVSVKISCKGSGYTFTDYTMHWVKQSHAKSLEWIGVISTYQGDARYNQKFKGKATMTVDKSSSTAYMELARLTSEDSAIYYCARFPDWDYAMDYWGQGTSVTVSS
VL: DIVLTQSPASLAVSLGQRATISCKASQSVDYDGDSYMNWYQQKPGQPPKLLIYAASNLESGIPARFSGSGSGTDFTLNIHPVEEEDAATYYCQHSRELPYTFGGGTKLEIK
notes: as for B8
In the case of B9, the “IC50(nM) … of HepG2 cells (CellTiter-Glo ATP)” value in assay [3] stood at 0.03 nM. The “IC50(nM) … of Jurkat cells (CellTiter-Glo ATP)” value in assay [4] stood at 0.109 nM. Also, in assay [5], the “EC50(nM) … (SEAP, HepG2-Dual)” value is 1.13 nM. The molecule further registered a concentration giving a half-maximal response (EC50) in assay [6] of 0.186 nM.

B10: FL-M89 (antibody, V domains shown)
VH: EVQLQQSGAELVRPGVSVKISCKGSGYTFTDYTIHWVKQSHAKSLEWIGVISTYQGDASYNQKFKGKATMTVDKSSSTAYMELARLTSEDSAIYYCARFPDWDYAMDYWGQGTSVTVSS
VL: DIVMTQSPASLAVSLGQRATISCKASQSVDYDGDSYMNWYQQKPGQPPKLLIYAASNLESGIPARFSGSGSGTDFTLNIHPVEEEDAATYYCQQSRELPYTFGGGTKLEIK
notes: as for B8
Regarding B10, the “IC50(nM) … of HepG2 cells (CellTiter-Glo ATP)” value in assay [3] turned out to be 0.021 nM. In assay [4], the “IC50(nM) … of Jurkat cells (CellTiter-Glo ATP)” value is 0.023 nM. Moreover, in assay [5], the “EC50(nM) … (SEAP, HepG2-Dual)” value was 1.33 nM. This molecule also yielded an EC50 in assay [6] of 0.441 nM.

B11: FL-M08 (antibody, V domains shown)
VH: QIQLLQSGAELVRPGVSVKISCKGSGYTFTDYAMHWVKQSHAKSLEWIGVISTYQGDANYNQKFKGKATMTVDKSSSTAYMELARLTSEDSAIYYCARFPDWDYAMDYWGQGTSVTVSS
VL: EIVLTQSPASLAVSLGQRATISCKASQSVDYDGDSYMNWYQQKPGQPPKLLIYAASNLESGIPARFSGSGSGTDFTLNIHPVEEEDAATYYCQHSRELPYTFGGGTKLEIK
notes: as for B8
B11: in assay [3], the “IC50(nM) … of HepG2 cells (CellTiter-Glo ATP)” value is 0.016 nM. In addition, the “IC50(nM) … of Jurkat cells (CellTiter-Glo ATP)” value in assay [4] was determined as 0.035 nM. The “EC50(nM) … (SEAP, HepG2-Dual)” value in assay [5] worked out at 0.704 nM. Besides, it took 0.157 nM to reach a half-maximal effect in assay [6] (EC50).

B12: FL-M56 (antibody, V domains shown)
VH: EVQLQQSGPELVKPGASVKLSCKASGYTFTRFDISWVRQRPEQGLEWIGWIFPGDGSTQYNENFKGKATLTTDKSSGTAYMQLNRLTSEDSAVYFCARSLISTAMFDHWGQGTTLTVSS
VL: DIVLTQSPASLAVSLGQRATISCRASKSVSTSDFSYIHWYQQKPGLPPKLLIFLASHLESGVPARFSGSGSGTDFTLNIHPVEEEDAATYYCQHSRELPRTFGGGTKLEIK
notes: as for B8
Take B12: the “IC50(nM) … of HepG2 cells (CellTiter-Glo ATP)” value in assay [3] stood at 0.02 nM. In assay [4], the “IC50(nM) … of Jurkat cells (CellTiter-Glo ATP)” value turned out to be 0.02 nM. Besides, the “EC50(nM) … (SEAP, HepG2-Dual)” value in assay [5] is 2.73 nM. The same molecule showed an EC50 in assay [6] of 0.661 nM.
